One assay deals with Thrombin. Briefly: enzyme inhibition, Z-Gly-Pro-Arg-pNa substrate, tight-binding fit.
Assay [1] has as its target MASP-2 CCP1-CCP2-SP (human), O00187. In words: enzyme inhibition, Z-L-Lys-SBzl substrate, tight-binding fit.
The target in the next assay is Trypsin. The description is as above.

The source of these data is patent publication US20120214748A1, “NOVEL PEPTIDES, PROCESS FOR PREPARATION THEREOF, AND USE THEREOF” (priority 2009, published 2012).

MASP-2 CCP1-CCP2-SP (human), O00187, sequence (O00187 298-686 limits assumed): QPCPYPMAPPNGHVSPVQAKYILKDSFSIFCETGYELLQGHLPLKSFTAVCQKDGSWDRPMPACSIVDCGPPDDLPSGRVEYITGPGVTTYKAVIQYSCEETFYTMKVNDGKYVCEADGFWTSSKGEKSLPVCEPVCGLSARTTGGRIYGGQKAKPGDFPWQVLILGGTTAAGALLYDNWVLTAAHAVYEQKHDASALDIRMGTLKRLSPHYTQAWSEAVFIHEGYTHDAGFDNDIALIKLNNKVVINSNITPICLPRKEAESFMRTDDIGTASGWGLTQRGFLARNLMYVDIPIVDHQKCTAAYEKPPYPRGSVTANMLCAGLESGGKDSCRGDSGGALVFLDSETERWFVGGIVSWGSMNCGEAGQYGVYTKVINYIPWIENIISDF
Trypsin, sequence (P00760 24-246): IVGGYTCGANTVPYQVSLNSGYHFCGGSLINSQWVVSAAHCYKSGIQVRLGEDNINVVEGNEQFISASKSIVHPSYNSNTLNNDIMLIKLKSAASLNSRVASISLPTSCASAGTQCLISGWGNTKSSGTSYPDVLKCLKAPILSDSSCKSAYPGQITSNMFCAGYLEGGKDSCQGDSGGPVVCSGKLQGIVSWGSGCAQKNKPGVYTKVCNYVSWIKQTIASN

As to GRCTKSIPPICFPD (modifications not checked) [wild-type SFTI (Sun Flower Trypsin Inhibitor)], the Ki in the assay with Thrombin came to 140 µM.

In the case of GYCSRSYPPVCIPD (modifications not checked) [M2-6E], the Ki is 0.18 µM in assay [1], 1 µM in the assay with Trypsin and 550 µM with Thrombin.

What is called Ki is the dissociation constant of the complex between target and ligand, obtained from inhibition or displacement.
